Measured values reported in article doi:10.1101/2023.05.25.542057 (bioRxiv, 2023).

Target: the molecule itself
Experiment: SEC-SAXS

B1: CDAN1-interacting nuclease 1 (CDIN1), full-length, recombinant from bacteria (natural protein)
chain: MILTKAQYDEIAQCLVSVPPTRQSLRKLKQRFPSQSQATLLSIFSQEYQKHIKRTHAKHHTSEAIESYYQRYLNGVVKNGAAPVLLDLANEVDYAPSLMARLILERFLQEHEETPPSKSIINSMLRDPSQIPDGVLANQVYQCIVNDCCYGPLVDCIKHAIGHEHEVLLRDLLLEKNLSFLDEDQLRAKGYDKTPDFILQVPVAVEGHIIHWIESKASFGDECSHHAYLHDQFWSYWNRFGPGLVIYWYGFIQELDCNRERGILLKACFPTNIVTLCHSIA
- stoichiometry N: 2
